Results on 25 sequences are retold here after the supplement of paper PMC9233669.

This sample holds only a part of the variants without activity.

The subject of series [1] is biotinyl-Trp-oxazolone. The series is described as follows: self-aminoacylation, catalytic enhancement (BWO) (fold over background); higher = more active; k-Seq, kA / k0A0; sequences stand for … in GGGAAUGGAUCCACAUCUACGAAUUC…UUCACUGCAGACUUGACGAAGCUG
An outline of the steps:
(§1)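 Mutagenized RNA pools (0.43 μM; 21-nt variable region) were treated with 2–1250 μM of each biotinyl-aminoacyl-oxazolone. Conditions were 50 μL HEPES/NaCl/KCl/MgCl2/CaCl2 buffer, 5% acetonitrile, pH 6.9–7.0, room temperature, 90 minutes. Catalytic enhancement, the median kA relative to the uncatalyzed rate, was derived from streptavidin capture, qPCR and Illumina sequencing.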

The subject of series [2] is biotinyl-Leu-oxazolone. The series is described as follows: self-aminoacylation, catalytic enhancement (BLO) (fold over background); higher = more active; k-Seq, kA / k0A0; sequences stand for … in GGGAAUGGAUCCACAUCUACGAAUUC…UUCACUGCAGACUUGACGAAGCUG
An outline of the steps:
as §1

Series [3] concerns biotinyl-Val-oxazolone. Put plainly: self-aminoacylation, catalytic enhancement (BVO) (fold over background); higher = more active; k-Seq, kA / k0A0; sequences stand for … in GGGAAUGGAUCCACAUCUACGAAUUC…UUCACUGCAGACUUGACGAAGCUG
An outline of the steps:
as §1

The subject of series [4] is biotinyl-Ile-oxazolone. The series is described as follows: self-aminoacylation, catalytic enhancement (BIO) (fold over background); higher = more active; k-Seq, kA / k0A0; sequences stand for … in GGGAAUGGAUCCACAUCUACGAAUUC…UUCACUGCAGACUUGACGAAGCUG
An outline of the steps: as §1

Series [5] concerns biotinyl-Met-oxazolone. The series is described as follows: self-aminoacylation, catalytic enhancement (BMO) (fold over background); higher = more active; k-Seq, kA / k0A0; sequences stand for … in GGGAAUGGAUCCACAUCUACGAAUUC…UUCACUGCAGACUUGACGAAGCUG
An outline of the steps: as §1

The subject of series [6] is biotinyl-Phe-oxazolone. The series is described as follows: self-aminoacylation, catalytic enhancement (BFO) (fold over background); higher = more active; k-Seq, kA / k0A0; sequences stand for … in GGGAAUGGAUCCACAUCUACGAAUUC…UUCACUGCAGACUUGACGAAGCUG
An outline of the steps: as §1

For the sequence “AUUUCCCUGGUCAACGAGUGA [Fam2.1 aminoacylation ribozyme variant]”, the self-aminoacylation in series [1] was found to be 8.23; in series [2], 6.99; in series [3] it was 3.91; in series [4], 3.9; in series [5], 6.93; in series [6], 42.4.

For “UUACUUCAAAGAAUCGGUCUG [Fam1A.1 aminoacylation ribozyme variant]”, the self-aminoacylation stood at 2.03 in series [1]; 1.57 in series [2]; 1.08 in series [3]; 1.34 in series [4]; 1.24 in series [5]; 2.71 in series [6].

On to “AAGUUUGCUAAUAGGCGCUAG [Fam3.1 aminoacylation ribozyme variant]”, for which the self-aminoacylation was found to be 0.561 in series [1]; 0.647 in series [2]; 0.722 in series [3]; 0.648 in series [4]; 0.723 in series [5]; 0.86 in series [6].

With “CUACUGCAAACUAUCGGUCUG [Fam1A.1 aminoacylation ribozyme variant]”, the self-aminoacylation worked out at 1.18 in series [1]; 1.17 in series [2]; 1.12 in series [3]; 1.02 in series [4]; 0.824 in series [5]; 1.14 in series [6].

“AGGUUUGCUAACAGUCGCAAG [Fam3.1 aminoacylation ribozyme variant]”: the self-aminoacylation amounted to 4.91 in series [1]; 1.66 in series [2]; 1.25 in series [3]; 1.57 in series [4]; 1.68 in series [5]; 15.2 in series [6].

“GUACUUCAAACAAUUGGUCUG [Fam1A.1 aminoacylation ribozyme variant]”: the self-aminoacylation amounted to 1.75 in series [1]; 1.34 in series [2]; 1.16 in series [3]; 1.36 in series [4]; 1.18 in series [5]; 1.82 in series [6].

Turning to “AGUCACCUAGGCCAUCGGGUG [Fam2.2 aminoacylation ribozyme variant]”, the self-aminoacylation in series [1] came to 5.32; in series [2], 3.53; in series [3], 3.96; in series [4] it was 3.31; in series [5], 3.86; in series [6], 25.

Consider “CUACUUCAAACGAUCGAUCUG [Fam1A.1 aminoacylation ribozyme variant]”, for which the self-aminoacylation was 0.354 in series [1]; 0.485 in series [2]; 0.584 in series [3]; 0.55 in series [4]; 0.47 in series [5]; 0.425 in series [6].

“AUUCCCCUUGGUCAUCGGGUG [Fam2.2 aminoacylation ribozyme variant]”: the self-aminoacylation in series [1] came out at 18.9; in series [2] it was 27.4; in series [3], 13.7; in series [4], 13.4; in series [5], 20.4; in series [6] it was 165.

In the case of “ACACACUUCAAGAAAUCGGUC [Fam1B.1 aminoacylation ribozyme variant]”, the self-aminoacylation came out at 4.86 in series [1]; 1.32 in series [2]; 1.27 in series [3]; 1.24 in series [4]; 1.41 in series [5]; 5.64 in series [6].

With “CGACACUUCAAGCAAUUGGUC [Fam1B.1 aminoacylation ribozyme variant]”, the self-aminoacylation was found to be 0.777 in series [1]; 0.668 in series [2]; 0.718 in series [3]; 0.908 in series [4]; 0.864 in series [5]; 0.985 in series [6].

For “CUAAUUCAAACAAUCGGUCUU [Fam1A.1 aminoacylation ribozyme variant]”, the self-aminoacylation in series [1] was found to be 1.32; in series [2], 0.629; in series [3], 0.716; in series [4] it was 0.743; in series [5], 0.695; in series [6] it was 2.49.

As to “CUACUGUAAACAAUCGGUCUG [Fam1A.1 aminoacylation ribozyme variant]”, the self-aminoacylation in series [1] was 0.53; in series [2] it was 0.863; in series [3], 0.741; in series [4], 0.897; in series [5] it was 0.887; in series [6], 0.659.

As for “AUUGCCCUAGUCAUCGAGUGA [Fam2.1 aminoacylation ribozyme variant]”, the self-aminoacylation in series [1] was 6.87; in series [2], 4.97; in series [3], 3.21; in series [4] it was 2.73; in series [5], 5.83; in series [6], 23.6.

As for “AUUAUCCUGGUCAUCGUGUGA [Fam2.1 aminoacylation ribozyme variant]”, the self-aminoacylation stood at 5.91 in series [1]; 3.83 in series [2]; 2.05 in series [3]; 2.15 in series [4]; 3.54 in series [5]; 28.6 in series [6].

“CCACACUUCAAUCAAUCGGUA [Fam1B.1 aminoacylation ribozyme variant]”: the self-aminoacylation in series [1] was determined as 0.739; in series [2], 0.609; in series [3], 0.849; in series [4] it was 0.79; in series [5], 0.749; in series [6], 0.825.

In the case of “AUUCACCUAGGUCAUCGCGUA [Fam2.2 aminoacylation ribozyme variant]”, the self-aminoacylation in series [1] was found to be 6.08; in series [2], 4.3; in series [3] it was 2.89; in series [4], 3.2; in series [5], 3.71; in series [6] it was 19.4.

In the case of “CUACUUCAAGCAACCGGUCUG [Fam1A.1 aminoacylation ribozyme variant]”, the self-aminoacylation in series [1] is 0.799; in series [2], 0.947; in series [3], 0.837; in series [4] it was 0.883; in series [5], 0.943; in series [6], 1.06.

Turning to “CCACACUUCAACGAAUCGGUC [Fam1B.1 aminoacylation ribozyme variant]”, the self-aminoacylation came out at 9.08 in series [1]; 0.962 in series [2]; 1.09 in series [3]; 0.873 in series [4]; 1.03 in series [5]; 11.2 in series [6].

Turning to “AAGUUUGCAUAUAGUCGCAAG [Fam3.1 aminoacylation ribozyme variant]”, the self-aminoacylation was determined as 0.826 in series [1]; 0.744 in series [2]; 0.961 in series [3]; 0.762 in series [4]; 0.636 in series [5]; 0.843 in series [6].

Consider “CCACACGUCAAGCGAUCGGUC [Fam1B.1 aminoacylation ribozyme variant]”, for which the self-aminoacylation came to 1.61 in series [1]; 1.11 in series [2]; 2.3 in series [3]; 1.21 in series [4]; 1.14 in series [5]; 1.06 in series [6].

Turning to “AUUACCCUGGUCAUUGAGGGA [Fam2.1 aminoacylation ribozyme variant]”, the self-aminoacylation was found to be 2.06 in series [1]; 1.25 in series [2]; 1.51 in series [3]; 1.23 in series [4]; 1.25 in series [5]; 1.13 in series [6].

“CCACACUUUAAGGAAUCGGUC [Fam1B.1 aminoacylation ribozyme variant]”: the self-aminoacylation in series [1] came out at 0.644; in series [2], 0.725; in series [3], 0.826; in series [4], 0.862; in series [5], 0.717; in series [6], 0.557.

Regarding “AAUCACUUAGGUCAUCGGGUG [Fam2.2 aminoacylation ribozyme variant]”, the self-aminoacylation in series [1] was 8.45; in series [2], 7.59; in series [3], 4.61; in series [4] it was 5.09; in series [5], 7.21; in series [6], 43.

For the sequence “AUUCAGAUAGGUCAUCGGGUG [Fam2.2 aminoacylation ribozyme variant]”, the self-aminoacylation was determined as 5.8 in series [1]; 7.3 in series [2]; 3.77 in series [3]; 4.19 in series [4]; 6.75 in series [5]; 49.6 in series [6].
